{"source": "paper PMC11255334", "about": "“Acetyl-CoA synthetase activity is enzymatically regulated by lysine acetylation using acetyl-CoA or acetyl-phosphate as donor molecule” (Nature Communications, 2024)", "molecules": {"B1": {"name": "Bacillus subtilis AMP-forming acetyl-CoA synthetase AcsA (enzyme, UniProt P39062 1-572, looked up)", "chain": "MNLKALPAIEGDHNLKNYEETYRHFDWAEAEKHFSWHETGKLNAAYEAIDRHAESFRKNKVALYYKDAKRDEKYTFKEMKEESNRAGNVLRRYGNVEKGDRVFIFMPRSPELYFIMLGAIKIGAIAGPLFEAFMEGAVKDRLENSEAKVVVTTPELLERIPVDKLPHLQHVFVVGGEAESGTNIINYDEAAKQESTRLDIEWMDKKDGFLLHYTSGSTGTPKGVLHVHEAMIQQYQTGKWVLDLKEEDIYWCTADPGWVTGTVYGIFAPWLNGATNVIVGGRFSPESWYGTIEQLGVNVWYSAPTAFRMLMGAGDEMAAKYDLTSLRHVLSVGEPLNPEVIRWGHKVFNKRIHDTWWMTETGSQLICNYPCMDIKPGSMGKPIPGVEAAIVDNQGNELPPYRMGNLAIKKGWPSMMHTIWNNPEKYESYFMPGGWYVSGDSAYMDEEGYFWFQGRVDDVIMTSGERVGPFEVESKLVEHPAIAEAGVIGKPDPVRGEIIKAFIALREGFEPSDKLKEEIRLFVKQGLAAHAAPREIEFKDKLPKTRSGKIMRRVLKAWELNLPAGDLSTMED", "notes": "AMP-forming acetyl-CoA synthetase AcsA, Bacillus subtilis, UniProt P39062; synthetic gene codon optimized for E. coli; also called AcsA wildtype; non-acetylated AcsA; source: E. coli BL21 (DE3), pET45b(+), purified (HisTrap FF, Ni2+)"}, "B2": {"name": "K549-acetylated Bacillus subtilis AcsA (enzyme, UniProt P39062 1-572, looked up)", "chain": "MNLKALPAIEGDHNLKNYEETYRHFDWAEAEKHFSWHETGKLNAAYEAIDRHAESFRKNKVALYYKDAKRDEKYTFKEMKEESNRAGNVLRRYGNVEKGDRVFIFMPRSPELYFIMLGAIKIGAIAGPLFEAFMEGAVKDRLENSEAKVVVTTPELLERIPVDKLPHLQHVFVVGGEAESGTNIINYDEAAKQESTRLDIEWMDKKDGFLLHYTSGSTGTPKGVLHVHEAMIQQYQTGKWVLDLKEEDIYWCTADPGWVTGTVYGIFAPWLNGATNVIVGGRFSPESWYGTIEQLGVNVWYSAPTAFRMLMGAGDEMAAKYDLTSLRHVLSVGEPLNPEVIRWGHKVFNKRIHDTWWMTETGSQLICNYPCMDIKPGSMGKPIPGVEAAIVDNQGNELPPYRMGNLAIKKGWPSMMHTIWNNPEKYESYFMPGGWYVSGDSAYMDEEGYFWFQGRVDDVIMTSGERVGPFEVESKLVEHPAIAEAGVIGKPDPVRGEIIKAFIALREGFEPSDKLKEEIRLFVKQGLAAHAAPREIEFKDKLPKTRSGKIMRRVLKAWELNLPAGDLSTMED", "modifications": "acetyl-lysine at K549", "notes": "AMP-forming acetyl-CoA synthetase AcsA, Bacillus subtilis, UniProt P39062, acetylated at K549 by AcuA; Formed in the sample from m1 and m2 before the SEC run; K549 is the major acceptor site by the K549R control; also called AcsA AcK549; acetylated AcsA; source: E. coli BL21 (DE3), purified; acetylated in vitro by AcuA with acetyl-CoA, or with AcP and CoA"}, "B3": {"name": "AcuA W140A (enzyme, Bacillus subtilis, UniProt P39065 1-210, looked up)", "chain": "MEHHKTYHSANIKTATGSLLIEGPVSPEDLAGYEFHKDLTAFRPPREQHEALVDIAGLPEGRIIIARDGRTIVGYVTYLYPDPLERWSEGNMEDLIELGAIEVAPDYRGCAVGKTLLTVSMMDEQMENYIVMTTEYYWHADLKGMKKDVWEYRKIMEKMMNAGGLVWFATDEPEISSHPANCLMARIGKNVSQESIEQFDRLRFYHRYMY", "notes": "AcuA, Bacillus subtilis, UniProt P39065, with W140A"}, "B4": {"name": "AcuA E97Q/E135Q (enzyme, Bacillus subtilis, UniProt P39065 1-210, looked up)", "chain": "MEHHKTYHSANIKTATGSLLIEGPVSPEDLAGYEFHKDLTAFRPPREQHEALVDIAGLPEGRIIIARDGRTIVGYVTYLYPDPLERWSEGNMEDLIQLGAIEVAPDYRGCAVGKTLLTVSMMDEQMENYIVMTTQYYWHWDLKGMKKDVWEYRKIMEKMMNAGGLVWFATDEPEISSHPANCLMARIGKNVSQESIEQFDRLRFYHRYMY", "notes": "AcuA, Bacillus subtilis, UniProt P39065, with E97Q and E135Q; also called double mutant AcuA E97Q/E135Q"}, "B5": {"name": "AcuA W140F (enzyme, Bacillus subtilis, UniProt P39065 1-210, looked up)", "chain": "MEHHKTYHSANIKTATGSLLIEGPVSPEDLAGYEFHKDLTAFRPPREQHEALVDIAGLPEGRIIIARDGRTIVGYVTYLYPDPLERWSEGNMEDLIELGAIEVAPDYRGCAVGKTLLTVSMMDEQMENYIVMTTEYYWHFDLKGMKKDVWEYRKIMEKMMNAGGLVWFATDEPEISSHPANCLMARIGKNVSQESIEQFDRLRFYHRYMY", "notes": "AcuA, Bacillus subtilis, UniProt P39065, with W140F"}}, "key": {"AcsA•AcuA complex": {"target": "T1, AcsA•AcuA complex (Bacillus subtilis, UniProt P39065)", "T1 construct": "both N-terminally His6-tagged, E. coli BL21 (DE3); AcuA 25,484 g/mol, monomer alone; apparent heterotetramer; AcsA K549 is the acetyl acceptor; with Acetyl-coenzyme A synthetase (AMP-forming)", "T1 sequence (P39065 whole entry, one chain of several)": "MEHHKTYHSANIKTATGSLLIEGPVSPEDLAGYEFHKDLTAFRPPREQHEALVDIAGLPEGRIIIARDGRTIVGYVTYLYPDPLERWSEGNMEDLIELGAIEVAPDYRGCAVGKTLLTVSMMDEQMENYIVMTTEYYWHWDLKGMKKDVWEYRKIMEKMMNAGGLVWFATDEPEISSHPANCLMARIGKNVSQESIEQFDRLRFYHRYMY", "assay": "lysine acetylation of AcsA K549, anti-AcK immunoblot and SEC", "format": "biochemical"}, "[1]": {"target": "the molecule itself", "assay": "SEC; analytical SEC of the single proteins, Superdex 200 10/300 GL, 50 mM Tris/HCl pH 8, 50 mM KCl, 2 mM β-mercaptoethanol; 100 µl of 50–100 µM injected; MW from a calibration curve"}, "[2]": {"target": "the molecule itself", "assay": "SEC; analytical SEC of the preformed equimolar AcsA•AcuA complex pretreated with a tenfold molar excess of acetyl-CoA (excess also varied), 30 min at room temperature; fractions checked by anti-AcK immunoblot and Ponceau S"}, "[3]": {"target": "B1", "assay": "SEC; analytical SEC of equimolar AcsA and AcuA (wild type or mutants), incubated 30 min at room temperature, Superdex 200 10/300 GL, 50 mM Tris/HCl pH 8, 50 mM KCl, 2 mM β-mercaptoethanol; 100 µl of 50–100 µM; without ligand or with a tenfold molar excess of CoA or AcP alone", "settings": "both partners purified"}}, "data": [{"molecule": "CC(=O)SCCNC(=O)CCNC(=O)[C@H](O)C(C)(C)COP(=O)(O)OP(=O)(O)OC[C@H]1O[C@@H](n2cnc3c(N)ncnc32)[C@H](O)[C@@H]1OP(=O)(O)O", "note": "[acetyl-CoA]", "values": [{"measurement": "lysine acetylation of AcsA K549, anti-AcK immunoblot and SEC", "setting": "AcsA•AcuA complex; 200 µM acetyl-CoA, AcuA 5 µM, AcsA 20 µM, acetyltransferase activity", "result": "addition of acetyl-CoA to AcsA and AcuA resulted in a strong acetylation of AcsA"}]}, {"molecule": "CC(=O)OP(=O)(O)O", "note": "[AcP]", "values": [{"measurement": "lysine acetylation of AcsA K549, anti-AcK immunoblot and SEC", "setting": "AcsA•AcuA complex; intrinsic phosphotransacetylase activity, AcP with CoA as needed co-substrate, 37 °C", "result": "upon addition of CoA and AcP, AcsA was strongly acetylated"}]}, {"molecule": "B1", "values": [{"measurement": "stoichiometry N", "setting": "[1]", "result": 2}]}, {"molecule": "B2", "values": [{"measurement": "stoichiometry N", "setting": "[2]", "result": 2}]}, {"molecule": "B3", "values": [{"measurement": "binding result", "setting": "[3]", "result": "binds"}]}, {"molecule": "B4", "values": [{"measurement": "binding result", "setting": "[3]", "result": "binds"}]}, {"molecule": "B5", "values": [{"measurement": "binding result", "setting": "[3]", "result": "binds"}]}]}
